Experimental data taken from the supplement of paper PMC10065799, “High-throughput profiling of sequence recognition by tyrosine kinases and SH2 domains using bacterial peptide display” (eLife, 2023).

Legend:
SHP2-C SH2 = test: SH2 binding enrichment of the phosphorylated peptide, bacterial display (enrichment ratio); higher = better substrate or ligand; peptides without Tyr show the background
c-Src SH2 = test: as above
Grb2 SH2 = Grb2 SH2 (UniProt P62993); test: as above
FGFR1 = FGFR1 (UniProt P11362); test: phosphorylation enrichment, bacterial display (enrichment ratio); higher = better substrate or ligand; peptides without Tyr show the background
FGFR1, sequence (P11362 whole entry, looked up): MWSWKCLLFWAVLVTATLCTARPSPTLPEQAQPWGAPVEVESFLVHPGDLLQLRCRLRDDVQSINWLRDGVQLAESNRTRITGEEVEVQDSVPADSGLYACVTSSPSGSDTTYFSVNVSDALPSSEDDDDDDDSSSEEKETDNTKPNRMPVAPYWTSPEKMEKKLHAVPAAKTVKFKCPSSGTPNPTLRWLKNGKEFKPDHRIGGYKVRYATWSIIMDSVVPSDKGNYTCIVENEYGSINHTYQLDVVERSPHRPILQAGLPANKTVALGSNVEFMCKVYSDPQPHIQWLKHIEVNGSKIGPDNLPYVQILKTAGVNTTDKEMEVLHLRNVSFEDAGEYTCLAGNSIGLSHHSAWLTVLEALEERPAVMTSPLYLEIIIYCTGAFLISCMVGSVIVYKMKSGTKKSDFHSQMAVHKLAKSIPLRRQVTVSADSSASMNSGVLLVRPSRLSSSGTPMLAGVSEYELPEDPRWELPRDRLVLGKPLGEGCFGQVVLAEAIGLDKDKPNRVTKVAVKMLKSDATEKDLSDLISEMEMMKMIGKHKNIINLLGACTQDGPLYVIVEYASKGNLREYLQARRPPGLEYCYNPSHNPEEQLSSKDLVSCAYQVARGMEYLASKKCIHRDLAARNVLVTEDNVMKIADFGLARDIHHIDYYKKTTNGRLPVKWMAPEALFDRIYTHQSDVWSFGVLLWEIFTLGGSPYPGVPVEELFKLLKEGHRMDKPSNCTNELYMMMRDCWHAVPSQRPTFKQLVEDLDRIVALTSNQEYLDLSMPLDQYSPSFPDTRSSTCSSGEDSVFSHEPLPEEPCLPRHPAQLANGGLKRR

EPHB2 = EPHB2 (UniProt P29323); test: as above
Hck = Hck (UniProt P08631); test: as above
EPHB1 = EPHB1 (UniProt P54762); test: as above
EPHB1, sequence (P54762 whole entry, looked up): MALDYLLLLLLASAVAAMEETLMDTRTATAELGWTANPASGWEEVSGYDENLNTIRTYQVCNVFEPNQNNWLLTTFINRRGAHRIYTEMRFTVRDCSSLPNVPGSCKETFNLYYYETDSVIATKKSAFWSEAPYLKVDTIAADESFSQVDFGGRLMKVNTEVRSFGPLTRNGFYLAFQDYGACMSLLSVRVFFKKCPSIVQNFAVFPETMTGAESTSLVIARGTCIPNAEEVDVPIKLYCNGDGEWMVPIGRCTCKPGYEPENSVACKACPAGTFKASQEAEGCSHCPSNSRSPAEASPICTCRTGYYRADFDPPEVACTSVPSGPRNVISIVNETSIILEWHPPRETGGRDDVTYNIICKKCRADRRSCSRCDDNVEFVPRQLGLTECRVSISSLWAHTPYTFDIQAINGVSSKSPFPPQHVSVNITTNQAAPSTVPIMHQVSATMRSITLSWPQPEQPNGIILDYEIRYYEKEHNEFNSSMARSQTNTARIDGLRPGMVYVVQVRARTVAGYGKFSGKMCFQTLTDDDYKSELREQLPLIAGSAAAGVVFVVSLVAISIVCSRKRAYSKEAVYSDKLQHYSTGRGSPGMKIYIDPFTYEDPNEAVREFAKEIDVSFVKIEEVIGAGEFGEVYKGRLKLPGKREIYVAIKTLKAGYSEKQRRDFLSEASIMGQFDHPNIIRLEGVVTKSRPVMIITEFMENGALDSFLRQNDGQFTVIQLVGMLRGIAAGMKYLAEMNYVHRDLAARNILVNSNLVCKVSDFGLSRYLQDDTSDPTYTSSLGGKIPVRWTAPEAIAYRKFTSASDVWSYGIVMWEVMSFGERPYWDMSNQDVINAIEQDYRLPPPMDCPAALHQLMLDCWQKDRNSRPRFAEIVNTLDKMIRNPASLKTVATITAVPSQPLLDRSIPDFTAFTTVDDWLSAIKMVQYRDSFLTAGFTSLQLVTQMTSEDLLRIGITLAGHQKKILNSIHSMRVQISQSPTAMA

MERTK = MERTK (UniProt Q12866); test: as above
c-Src = test: as above
FGFR3 = FGFR3 (UniProt P22607); test: as above
FGFR3, sequence (P22607 whole entry, looked up): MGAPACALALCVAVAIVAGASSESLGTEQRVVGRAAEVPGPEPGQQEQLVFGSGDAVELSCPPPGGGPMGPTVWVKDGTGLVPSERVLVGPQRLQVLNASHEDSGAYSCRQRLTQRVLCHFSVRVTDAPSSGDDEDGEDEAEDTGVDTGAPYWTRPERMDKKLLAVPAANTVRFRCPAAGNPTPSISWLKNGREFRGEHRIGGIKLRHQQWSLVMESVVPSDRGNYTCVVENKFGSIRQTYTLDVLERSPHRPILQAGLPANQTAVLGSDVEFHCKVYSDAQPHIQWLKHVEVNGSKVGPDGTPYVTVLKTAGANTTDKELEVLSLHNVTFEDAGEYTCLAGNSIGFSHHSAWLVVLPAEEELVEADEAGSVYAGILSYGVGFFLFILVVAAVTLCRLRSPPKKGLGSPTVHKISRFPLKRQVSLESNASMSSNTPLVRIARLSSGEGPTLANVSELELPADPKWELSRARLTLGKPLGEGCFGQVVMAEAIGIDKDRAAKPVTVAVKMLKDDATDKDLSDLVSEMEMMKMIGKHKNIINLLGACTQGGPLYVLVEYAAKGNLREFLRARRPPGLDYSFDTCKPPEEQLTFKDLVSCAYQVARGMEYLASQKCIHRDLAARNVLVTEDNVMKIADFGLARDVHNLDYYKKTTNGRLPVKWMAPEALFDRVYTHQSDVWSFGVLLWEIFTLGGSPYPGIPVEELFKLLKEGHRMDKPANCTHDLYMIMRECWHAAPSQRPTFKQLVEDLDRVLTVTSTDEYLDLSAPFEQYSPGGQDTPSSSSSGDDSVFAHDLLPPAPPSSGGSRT

Fyn = Fyn (UniProt P06241); test: as above
Fyn, sequence (P06241 whole entry, looked up): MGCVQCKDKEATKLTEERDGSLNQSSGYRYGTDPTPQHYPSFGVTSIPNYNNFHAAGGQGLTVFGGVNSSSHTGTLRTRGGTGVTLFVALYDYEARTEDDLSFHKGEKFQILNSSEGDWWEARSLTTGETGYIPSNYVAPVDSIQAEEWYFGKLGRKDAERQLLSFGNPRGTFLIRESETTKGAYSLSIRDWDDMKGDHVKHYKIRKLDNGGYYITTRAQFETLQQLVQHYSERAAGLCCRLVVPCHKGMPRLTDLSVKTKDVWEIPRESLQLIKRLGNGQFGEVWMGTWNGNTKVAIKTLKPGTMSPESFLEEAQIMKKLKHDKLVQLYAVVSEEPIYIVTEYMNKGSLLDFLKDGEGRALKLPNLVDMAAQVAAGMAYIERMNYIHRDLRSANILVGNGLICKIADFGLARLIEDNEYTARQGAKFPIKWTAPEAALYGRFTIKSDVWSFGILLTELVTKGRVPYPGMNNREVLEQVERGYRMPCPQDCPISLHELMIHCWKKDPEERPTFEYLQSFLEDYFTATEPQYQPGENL

c-Abl (mouse) = test: as above
AncSZ = test: as above
Fer (mouse) = test: as above
Fes = Fes (UniProt P07332); test: as above
Fes, sequence (P07332 whole entry, looked up): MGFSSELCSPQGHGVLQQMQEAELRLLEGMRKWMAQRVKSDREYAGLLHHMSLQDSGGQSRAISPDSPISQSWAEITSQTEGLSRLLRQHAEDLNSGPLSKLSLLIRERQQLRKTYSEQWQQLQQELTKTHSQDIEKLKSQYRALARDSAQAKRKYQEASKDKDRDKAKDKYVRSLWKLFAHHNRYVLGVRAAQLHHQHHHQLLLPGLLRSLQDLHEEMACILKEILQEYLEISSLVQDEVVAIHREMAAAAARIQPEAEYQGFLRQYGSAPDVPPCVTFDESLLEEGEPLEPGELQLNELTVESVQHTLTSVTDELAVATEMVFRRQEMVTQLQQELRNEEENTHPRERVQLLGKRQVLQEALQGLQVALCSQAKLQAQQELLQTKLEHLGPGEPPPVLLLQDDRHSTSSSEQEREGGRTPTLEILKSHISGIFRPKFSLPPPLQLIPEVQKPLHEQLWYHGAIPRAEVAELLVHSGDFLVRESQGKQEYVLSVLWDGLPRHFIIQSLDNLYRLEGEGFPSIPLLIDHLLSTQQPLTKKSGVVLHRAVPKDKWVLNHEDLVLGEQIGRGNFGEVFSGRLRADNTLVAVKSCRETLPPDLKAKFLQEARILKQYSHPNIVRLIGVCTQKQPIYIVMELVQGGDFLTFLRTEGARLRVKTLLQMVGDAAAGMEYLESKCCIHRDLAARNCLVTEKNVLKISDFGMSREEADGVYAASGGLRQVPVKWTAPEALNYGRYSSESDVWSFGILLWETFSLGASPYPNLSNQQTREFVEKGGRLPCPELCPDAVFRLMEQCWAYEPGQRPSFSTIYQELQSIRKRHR

Jak2 = Jak2 (UniProt O60674); test: as above
Jak2, sequence (O60674 whole entry, looked up, the tested form may be a part): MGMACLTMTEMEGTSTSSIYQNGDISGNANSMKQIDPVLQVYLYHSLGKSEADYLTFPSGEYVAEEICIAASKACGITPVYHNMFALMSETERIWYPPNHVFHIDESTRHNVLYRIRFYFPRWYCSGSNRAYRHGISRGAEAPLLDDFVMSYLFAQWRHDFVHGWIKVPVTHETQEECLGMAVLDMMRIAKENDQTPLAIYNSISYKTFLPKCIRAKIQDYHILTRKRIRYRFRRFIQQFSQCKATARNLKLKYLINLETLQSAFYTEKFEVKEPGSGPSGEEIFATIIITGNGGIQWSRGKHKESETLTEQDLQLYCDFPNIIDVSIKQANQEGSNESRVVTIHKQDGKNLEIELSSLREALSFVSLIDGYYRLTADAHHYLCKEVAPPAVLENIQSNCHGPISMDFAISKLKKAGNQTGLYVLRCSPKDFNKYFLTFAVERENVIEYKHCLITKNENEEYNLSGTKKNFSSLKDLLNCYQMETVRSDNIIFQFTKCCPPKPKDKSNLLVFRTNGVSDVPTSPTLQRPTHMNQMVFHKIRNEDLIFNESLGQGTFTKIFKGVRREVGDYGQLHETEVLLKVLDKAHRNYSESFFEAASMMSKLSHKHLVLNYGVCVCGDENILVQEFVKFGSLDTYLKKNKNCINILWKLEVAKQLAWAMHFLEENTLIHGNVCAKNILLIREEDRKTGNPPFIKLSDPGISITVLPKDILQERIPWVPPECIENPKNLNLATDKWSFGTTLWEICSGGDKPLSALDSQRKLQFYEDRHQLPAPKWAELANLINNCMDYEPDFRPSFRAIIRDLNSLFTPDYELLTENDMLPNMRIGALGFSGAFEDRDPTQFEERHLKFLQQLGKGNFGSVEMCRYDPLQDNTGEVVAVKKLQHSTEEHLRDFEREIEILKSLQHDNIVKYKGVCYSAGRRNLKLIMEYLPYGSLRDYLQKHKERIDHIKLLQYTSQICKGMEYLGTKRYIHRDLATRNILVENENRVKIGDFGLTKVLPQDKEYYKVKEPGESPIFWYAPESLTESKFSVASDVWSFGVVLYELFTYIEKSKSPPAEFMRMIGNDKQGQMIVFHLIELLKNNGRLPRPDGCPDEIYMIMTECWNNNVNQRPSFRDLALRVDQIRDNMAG
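For SH2 binding enrichment of the phosphorylated peptide, bacterial display in this document: peptide library displayed on the E. coli surface as eCPX fusions, selected cells deep-sequenced, score is each peptide's frequency after selection divided by its frequency in the input.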
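For phosphorylation enrichment, bacterial display in this document: 11-residue human phosphosite peptides and single-mutation variants displayed on the E. coli surface, counted by deep sequencing, each peptide's frequency after selection divided by its frequency in the unselected input library; frequency after pTyr selection over input frequency; kinase dosed for 20-30% of maximal phosphorylation in three min.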

Sequence	SH2 binding enrichment (SHP2-C SH2)	SH2 binding enrichment (c-Src SH2)	SH2 binding enrichment (Grb2 SH2)	phosphorylation enrichment (FGFR1)	phosphorylation enrichment (EPHB2)	phosphorylation enrichment (Hck)	phosphorylation enrichment (EPHB1)	phosphorylation enrichment (MERTK)	phosphorylation enrichment (c-Src)	phosphorylation enrichment (FGFR3)	phosphorylation enrichment (Fyn)	phosphorylation enrichment (c-Abl (mouse))	phosphorylation enrichment (AncSZ)	phosphorylation enrichment (Fer (mouse))	phosphorylation enrichment (Fes)	phosphorylation enrichment (Jak2)
LTDRGYSFVTT [ACTA1_Y200_E197D]	6.52	10	0.988	0.772	1.04	0.677	0.852	0.846	0.6	0.756	0.8	1.17	1.38	0.653	1.23	1.88
LTERGYSFTTK [ACTG1_Y198_T203K]	0.653	0.454	0.679	1.96	2.03	0.911	1.8	1.79	0.982	1.54	1.66	0.995	3	2.1	2.1	1.65
LTNDRYVATLT [IL6ST_Y396_L397V]	0.527	0.537	0.764	0.619	0.72	0.394	0.607	0.622	0.69	0.82	0.576	0.434	0.683	0.408	0.791	0.808
LTQRTYMSENA [GPAA1_Y49]	0.801	0.422	0.783	0.452	0.528	0.455	0.364	0.47	0.429	0.485	0.376	0.488	0.636	0.429	0.613	0.65
LVPAWYIGFLC [KCNQ2_Y237_T234P]	0.844	0.543	0.968	0.502	0.625	0.516	0.599	0.361	0.51	0.812	0.487	0.804	1.25	0.56	1.28	1.1
LYEDRYLLGPS [ASS1_Y87_T91P]	0.662	0.626	0.69	1.2	1.4	4.13	3.52	0.899	1.5	1.16	2.3	0.683	1.2	5.42	1.67	0.812
LYSNAYLSDLA [ALDH1A1_Y119_N121S]	0.782	1.11	0.94	1.14	1.45	3.5	2.99	8.43	1.96	1.23	3.58	0.618	1.68	7.25	1.01	0.945
MCDSHYLESRS [CLK1_Y56]	0.719	0.675	1.04	0.509	0.535	0.35	0.495	0.426	0.424	0.718	0.449	0.493	0.578	0.473	0.81	0.618

Now from value to sequence, other results behind:

SH2 binding enrichment (SHP2-C SH2)	SH2 binding enrichment (c-Src SH2)	SH2 binding enrichment (Grb2 SH2)	Sequence	phosphorylation enrichment (FGFR1)	phosphorylation enrichment (EPHB2)	phosphorylation enrichment (Hck)	phosphorylation enrichment (EPHB1)	phosphorylation enrichment (MERTK)	phosphorylation enrichment (c-Src)	phosphorylation enrichment (FGFR3)	phosphorylation enrichment (Fyn)	phosphorylation enrichment (c-Abl (mouse))	phosphorylation enrichment (AncSZ)	phosphorylation enrichment (Fer (mouse))	phosphorylation enrichment (Fes)	phosphorylation enrichment (Jak2)
1.41	8.46	0.71	LTYHMYADPNI [SOS1_Y618_F623I]	4.27	6.28	4.78	5.79	3.73	9.95	3.13	6.07	3.47	2.56	1.23	1.59	2.03
0.459	1.98	0.778	LVKDPYVMFPQ [PLEKHG2_Y489_P484L]	7.45	0.608	2.48	0.91	0.997	3.86	3.42	4.32	0.943	1.45	1.12	1.93	1.79
0.787	0.538	0.771	LVPPRYARSEI [PKP2_Y194]	0.74	0.72	0.783	0.597	0.528	0.394	0.941	0.631	0.345	1.26	0.697	1.34	0.495
0.765	0.37	0.732	LVTCSYLLGNS [LMNA_Y646_R644C]	0.76	1.56	0.803	1.14	0.99	1.3	1.72	0.756	1.95	2.16	0.959	3.29	2.94
0.665	0.535	0.924	LWPIWYSCHRP [MRGPRX1_Y130_R131S]	0.643	0.694	0.601	0.83	0.687	0.601	1.04	0.519	0.943	1.82	0.881	1.97	1.27
0.97	1.35	0.856	MALDRYVAICK [OR2B11_Y127]	0.508	0.575	0.51	0.581	0.411	0.454	0.604	0.464	0.863	0.762	0.499	0.838	0.665
